These results are taken from article PMC9496334, “In Silico Maturation of a Nanomolar Antibody against the Human CXCR2” (Biomolecules, 2022).

Test [1] deals with T1, Biotin-labeled human CXCR2 N-terminal extracellular peptide (pepN48) (Homo sapiens, UniProt P25025, biotin label (position not given)).
T1 construct: CXC chemokine receptor 2 (CXCR2, interleukin 8 receptor beta), human, the first 48 residues of the protein; Held on the streptavidin chip by its biotin; also called N-terminal peptide; peptide of extracellular N-terminal domain of human CXCR2
T1 chain: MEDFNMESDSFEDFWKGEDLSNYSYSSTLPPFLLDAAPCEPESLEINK
As to the kind of experiment: SPR; biotin-labeled pepN48 immobilised on a streptavidin Series S Sensor Chip SA; Biacore T200; IgG1 antibodies injected as analytes in HBS-EP+ buffer pH 7.4; kinetics fitted globally. Particulars: both partners purified. In general terms: SPR reads the build-up and loss of mass on a sensor chip optically.

The target of test [2] is T1, Biotin-labeled human CXCR2 N-terminal …. Described as above. Particulars: both partners purified.

B1: abN48 (antibody, V domains shown)
VH: QVQLVQSGAEVKKPGSSVKVSCKASGGTLSSYAISWVRQAPGQGPEWMGWINPNSGGTNYAQKFQGRVTMTRDTSISTAYMELSRLRPDDTAVYYCASGYCSSTSCYDYWGQGTLVTVSS
VL: QAVLTQPSSLSASPGASVSLTCTLRSGINVGAYRIYWYQQKPGSPPQFLLRYKSDSDKQQGSGVPSRFSGSRDASANAGILLISGLRSEDEADYYCAIWHSSAWVFGGGTQLTVL
notes: VH of abN48; constant region of the human IgG1 heavy chain, from the pFuse heavy-chain vector; VL of abN48, the same for all studied antibodies; light-chain constant region of the pFuse light-chain vector pfuse2ss-hcll2; Full-length IgG1 in the experiments; the crystal structure 6KVF holds the Fab; also called abN48 antibody; source: 293F cells, co-transfected, purified from the medium (HiTrap …)
As a reminder, the Kd is the concentration at which binding is half-saturated. High values mean weaker binding, low ones tighter binding. In turn, B1 yielded a Kd in test [1] of 1.3 nM.

B2: abN48-3 (antibody, V domains shown)
VH: QVQLVQSGAEVKKPGSSVKVSCKASGGTLSSYAISWVRQAPGQGPEWMGWINPNSGGTNYAQKFQGRVTMTRDTSISTAYMELSRLRPDDTAVYYCASGYCSFAICFDSWGQGTLVTVSS
VL: QAVLTQPSSLSASPGASVSLTCTLRSGINVGAYRIYWYQQKPGSPPQFLLRYKSDSDKQQGSGVPSRFSGSRDASANAGILLISGLRSEDEADYYCAIWHSSAWVFGGGTQLTVL
notes: parent VH in PDB 6KVF; constant region of the human IgG1 heavy chain, from the pFuse heavy-chain vector; as the VL of the light chain of m1; light-chain constant region of the pFuse light-chain vector pfuse2ss-hcll2; Full-length IgG1; source: 293F cells, co-transfected, purified from the medium (HiTrap Protein A)
Regarding B2, the affinity in test [1], expressed as Kd, was 2 nM.

B3: abN48-29 (antibody, V domains shown)
VH: QVQLVQSGAEVKKPGSSVKVSCKASGGTLSSYAISWVRQAPGQGPEWMGWINPNSGGTNYAQKFQGRVTMTRDTSISTAYMELSRLRPDDTAVYYCASGYCGRARCTSFWGQGTLVTVSS
VL: QAVLTQPSSLSASPGASVSLTCTLRSGINVGAYRIYWYQQKPGSPPQFLLRYKSDSDKQQGSGVPSRFSGSRDASANAGILLISGLRSEDEADYYCAIWHSSAWVFGGGTQLTVL
notes: as for B2
In test [1], B3 returned a Kd of 0.13 nM.

B4: abN48-1 (antibody, V domains shown)
VH: QVQLVQSGAEVKKPGSSVKVSCKASGGTLSSYAISWVRQAPGQGPEWMGWINPNSGGTNYAQKFQGRVTMTRDTSISTAYMELSRLRPDDTAVYYCASGFCTRTICFVYWGQGTLVTVSS
VL: QAVLTQPSSLSASPGASVSLTCTLRSGINVGAYRIYWYQQKPGSPPQFLLRYKSDSDKQQGSGVPSRFSGSRDASANAGILLISGLRSEDEADYYCAIWHSSAWVFGGGTQLTVL
notes: as for B2
In the case of B4, in test [1], the affinity, expressed as Kd, was 0.26 nM.

B5: abN48-28 (antibody, V domains shown)
VH: QVQLVQSGAEVKKPGSSVKVSCKASGGTLSSYAISWVRQAPGQGPEWMGWINPNSGGTNYAQKFQGRVTMTRDTSISTAYMELSRLRPDDTAVYYCASGYCSPSGCYVYWGQGTLVTVSS
VL: QAVLTQPSSLSASPGASVSLTCTLRSGINVGAYRIYWYQQKPGSPPQFLLRYKSDSDKQQGSGVPSRFSGSRDASANAGILLISGLRSEDEADYYCAIWHSSAWVFGGGTQLTVL
notes: as for B2
Consider B5, for which the Kd in test [1] was 0.65 nM.

B6: abN48-10 (antibody, V domains shown)
VH: QVQLVQSGAEVKKPGSSVKVSCKASGGTLSSYAISWVRQAPGQGPEWMGWINPNSGGTNYAQKFQGRVTMTRDTSISTAYMELSRLRPDDTAVYYCASGYCSRFNCKDYWGQGTLVTVSS
VL: QAVLTQPSSLSASPGASVSLTCTLRSGINVGAYRIYWYQQKPGSPPQFLLRYKSDSDKQQGSGVPSRFSGSRDASANAGILLISGLRSEDEADYYCAIWHSSAWVFGGGTQLTVL
notes: as for B2
In test [1], B6 registered a Kd of 0.27 nM.

B7: abN48-2 (antibody, V domains shown)
VH: QVQLVQSGAEVKKPGSSVKVSCKASGGTLSSYAISWVRQAPGQGPEWMGWINPNSGGTNYAQKFQGRVTMTRDTSISTAYMELSRLRPDDTAVYYCASGYCSRTRCYDYWGQGTLVTVSS
VL: QAVLTQPSSLSASPGASVSLTCTLRSGINVGAYRIYWYQQKPGSPPQFLLRYKSDSDKQQGSGVPSRFSGSRDASANAGILLISGLRSEDEADYYCAIWHSSAWVFGGGTQLTVL
notes: VH of abN48-2: as the VH of m1 with two serines of CDR3 changed to arginines; parent VH in PDB 6KVF; constant region of the human IgG1 heavy chain, from the pFuse heavy-chain vector; as the VL of the light chain of m1; light-chain constant region of the pFuse light-chain vector pfuse2ss-hcll2; Full-length IgG1; source: 293F cells, co-transfected, purified from the medium (HiTrap Protein A)
The term koff denotes the rate constant with which the complex falls apart. Read a low koff as a long-lived complex. What is called kon is the rate constant with which the complex forms. As for B7, in test [2], the Kd amounted to 0.11 nM, the koff came out at 0.00027 s⁻¹ and the kon was found to be 2.5e+06 M⁻¹ s⁻¹.

B8: abN48-8 (antibody, V domains shown)
VH: QVQLVQSGAEVKKPGSSVKVSCKASGGTLSSYAISWVRQAPGQGPEWMGWINPNSGGTNYAQKFQGRVTMTRDTSISTAYMELSRLRPDDTAVYYCASGYCNRTRCYDHWGQGTLVTVSS
VL: QAVLTQPSSLSASPGASVSLTCTLRSGINVGAYRIYWYQQKPGSPPQFLLRYKSDSDKQQGSGVPSRFSGSRDASANAGILLISGLRSEDEADYYCAIWHSSAWVFGGGTQLTVL
notes: as for B2
B8 returned a dissociation constant Kd in test [1] of 0.83 nM.

B9: abN48-38 (antibody, V domains shown)
VH: QVQLVQSGAEVKKPGSSVKVSCKASGGTLSSYAISWVRQAPGQGPEWMGWINPNSGGTNYAQKFQGRVTMTRDTSISTAYMELSRLRPDDTAVYYCASGYCSRSRCYDYWGQGTLVTVSS
VL: QAVLTQPSSLSASPGASVSLTCTLRSGINVGAYRIYWYQQKPGSPPQFLLRYKSDSDKQQGSGVPSRFSGSRDASANAGILLISGLRSEDEADYYCAIWHSSAWVFGGGTQLTVL
notes: as for B2
In the case of B9, in test [1], the Kd was determined as 0.23 nM.
